Data published in article PMC9325545, “Structure and Mutation of the Native Amine Dehydrogenase MATOUAmDH2” (Chembiochem, 2022).

Molecular target: MATOUAmDH2 (native amine dehydrogenase from the Marine Atlas of Tara Oceans Unigenes, MATOUv1)
Test: crystal structure; complex with NADP+; space group P2(1)2(1)2(1); four molecules in the asymmetric unit, two dimers (A/D and B/C)

stoichiometry N: 2
Substance: MATOUAmDH2 (native amine dehydrogenase from the Marine Atlas of Tara Oceans Unigenes, MATOUv1) (enzyme)
